Assay results reported in the supplement of paper PMC9112550, “Optimization of the antimicrobial peptide Bac7 by deep mutational scanning” (BMC Biology, 2022).

Each sequence was assayed on Escherichia coli TOP10 (assay: shrunken log2 fold change of peptide-encoding DNA abundance (4.5 h post-induction vs induction); higher = less antimicrobial activity (less host growth inhibition)). Conditions: time post-induction: 4.5 h; library: site-saturation at positions 5, 18, 19, 20.
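Note: peptides expressed intracellularly from a pBAD plasmid library in pooled LB shake-flask culture, induced with 0.3% L-arabinose, DNA abundance read by NGS, three biological replicates, DESeq2 with apeglm shrinkage.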

| Sequence | shrunken log2 fold change |
| --- | --- |
| RRIRHRPPRLPRPRPRPTNDPRP | -0.311 |
| RRIRSRPPRLPRPRPRPVCDPRP | 0.327 |
| RRIRRRPPRLPRPRPRPVWVPRP | 0.566 |
| RRIRTRPPRLPRPRPRPTTCPRP | -0.00487 |
| RRIRERPPRLPRPRPRPQIHPRP | -0.835 |
| RRIRNRPPRLPRPRPRPYCFPRP | -0.516 |
| RRIRGRPPRLPRPRPRPATLPRP | 0.393 |
| RRIRGRPPRLPRPRPRPHDLPRP | -0.00843 |
| RRIRCRPPRLPRPRPRPYWVPRP | -0.528 |
| RRIRFRPPRLPRPRPRPHYTPRP | -0.385 |
| RRIRCRPPRLPRPRPRPPRCPRP | 1.9 |
| RRIRFRPPRLPRPRPRPWCHPRP | 0.524 |
| RRIRFRPPRLPRPRPRPILAPRP | 0.0156 |
| RRIRERPPRLPRPRPRPSQQPRP | 0.0678 |
| RRIRCRPPRLPRPRPRPACWPRP | 0.219 |
| RRIRYRPPRLPRPRPRPSKTPRP | -0.0513 |
| RRIRWRPPRLPRPRPRPMKKPRP | -0.0863 |
| RRIRYRPPRLPRPRPRPTRCPRP | 0.175 |
| RRIRPRPPRLPRPRPRPMQQPRP | -0.0524 |
| RRIRIRPPRLPRPRPRPQTSPRP | -0.404 |
| RRIRYRPPRLPRPRPRPGDWPRP | 0.337 |
| RRIRLRPPRLPRPRPRPTCDPRP | -0.202 |
| RRIRMRPPRLPRPRPRPECIPRP | 1.61 |
| RRIRMRPPRLPRPRPRPVQCPRP | -0.0134 |
| RRIRVRPPRLPRPRPRPCVWPRP | -0.0237 |

| Sequence | shrunken log2 fold change |
| --- | --- |
| RRIRKRPPRLPRPRPRPSTWPRP | -0.18 |
| RRIRYRPPRLPRPRPRPTSVPRP | -0.395 |
| RRIRSRPPRLPRPRPRPLTTPRP | -0.127 |
| RRIRTRPPRLPRPRPRPGSWPRP | 0.844 |
| RRIRVRPPRLPRPRPRPIQHPRP | -0.415 |
| RRIRLRPPRLPRPRPRPHDLPRP | -0.308 |
| RRIRKRPPRLPRPRPRPLKIPRP | 2.15 |
| RRIRDRPPRLPRPRPRPQFSPRP | 0.0361 |
| RRIRWRPPRLPRPRPRPGHGPRP | 0.214 |
| RRIRYRPPRLPRPRPRPMFAPRP | -0.117 |
| RRIRFRPPRLPRPRPRPYWSPRP | -0.428 |
| RRIRLRPPRLPRPRPRPYSMPRP | -0.924 |
| RRIRKRPPRLPRPRPRPKNNPRP | -0.047 |
| RRIRSRPPRLPRPRPRPCQPPRP | 0.0956 |
| RRIRCRPPRLPRPRPRPEVPPRP | -0.119 |
| RRIRVRPPRLPRPRPRPCNMPRP | -0.247 |
| RRIRSRPPRLPRPRPRPNAPPRP | 0.0774 |
| RRIRFRPPRLPRPRPRPNDSPRP | -0.0675 |
| RRIRCRPPRLPRPRPRPNYWPRP | -0.326 |
| RRIRGRPPRLPRPRPRPYLSPRP | -0.0512 |
| RRIRIRPPRLPRPRPRPWRAPRP | 0.0578 |
| RRIRWRPPRLPRPRPRPGKVPRP | -0.132 |
| RRIRDRPPRLPRPRPRPFMNPRP | -0.117 |
| RRIRPRPPRLPRPRPRPFSIPRP | -0.164 |
| RRIRHRPPRLPRPRPRPFKFPRP | -0.376 |

| Sequence | shrunken log2 fold change |
| --- | --- |
| RRIRWRPPRLPRPRPRPGTNPRP | 0.243 |
| RRIRRRPPRLPRPRPRPMQEPRP | -0.206 |
| RRIRKRPPRLPRPRPRPDCHPRP | 0.233 |
| RRIRNRPPRLPRPRPRPMIPPRP | 0.0389 |
| RRIRGRPPRLPRPRPRPYELPRP | -0.036 |
| RRIRMRPPRLPRPRPRPVDKPRP | 0.0379 |
| RRIRGRPPRLPRPRPRPKEDPRP | 0.796 |
| RRIRRRPPRLPRPRPRPQKLPRP | 0.102 |
| RRIRWRPPRLPRPRPRPIRWPRP | 0.0855 |
| RRIRLRPPRLPRPRPRPMEYPRP | 0.015 |
| RRIRPRPPRLPRPRPRPLHNPRP | -0.201 |
| RRIRERPPRLPRPRPRPTYNPRP | -0.908 |
| RRIRHRPPRLPRPRPRPFEQPRP | -0.283 |
| RRIRHRPPRLPRPRPRPTDNPRP | -0.177 |
| RRIRRRPPRLPRPRPRPQWVPRP | 0.279 |
| RRIRIRPPRLPRPRPRPHNQPRP | -0.528 |
| RRIRTRPPRLPRPRPRPMYTPRP | -0.156 |
| RRIRVRPPRLPRPRPRPKMHPRP | -0.198 |
| RRIRLRPPRLPRPRPRPHFSPRP | -0.189 |
| RRIRIRPPRLPRPRPRPNQDPRP | -0.507 |
| RRIRNRPPRLPRPRPRPGNLPRP | -0.186 |
| RRIRCRPPRLPRPRPRPEMQPRP | 0.526 |
| RRIRGRPPRLPRPRPRPDWCPRP | 1.37 |
| RRIRWRPPRLPRPRPRPGPTPRP | 0.487 |
| RRIRYRPPRLPRPRPRPVYNPRP | -0.394 |
